According to patent US20240108738A1 (Bicycle, published 2024):
Numbered stars: 1 amine (or outer) side, 2 acyl side, 3 side chain; on linkers, the order of the positions; unused ones are H or OH. Bridge positions count the residues as written; N and C are the ends. Square brackets hold non-standard residues; d marks the D form. Primed or numbered codes have the meaning given here. Ends that are not written are not given here. * marks the point of attachment. TBMT = 2,4,6-tris(bromomethyl)-s-triazine, C(c1nc(C[*:2])nc(C[*:3])n1)[*:1]; TBMT″ = 2,4,6-tris(bromomethyl)-s-triazine, scaffold on three Cys; TATA = O=C(CC[*:1])N1CN(C(=O)CC[*:2])CN(C(=O)CC[*:3])C1; Phe(4-CF3) = N[C@@H](Cc1ccc(C(F)(F)F)cc1)C(=O)O; Phe(4-CONH2) = NC(=O)c1ccc(C[C@H](N)C(=O)O)cc1; Phe(4-CN) = N#Cc1ccc(C[C@H](N)C(=O)O)cc1; Phe(4-Cl) = N[C@@H](Cc1ccc(Cl)cc1)C(=O)O; Cba = N[C@@H](CC1CCC1)C(=O)O; Pent4ynoyl = C#CCCC(=O)*

B1: BCY19046 (peptide)
peptide: ACRXSVEDPCGAWCA
modifications: CiR[6MeTrp]SVEDPCiiGAWCiii
notes: scaffold TBMT
B2: BCY15639 (peptide)
peptide: ACY[Cba]PDYLCGDEYCA-NH2
modifications: linker 2-9-14 via TATA; N-terminus assumed
SMILES: CC(C)C[C@@H]1NC(=O)[C@H](Cc2ccc(O)cc2)NC(=O)[C@H](CC(=O)O)NC(=O)[C@@H]2CCCN2C(=O)[C@H](CC2CCC2)NC(=O)[C@H](Cc2ccc(O)cc2)NC(=O)[C@@H](NC(=O)[C@H](C)N)CSCCC(=O)N2CN3CN(C2)C(=O)CCSC[C@@H](C(=O)N[C@@H](C)C(N)=O)NC(=O)[C@H](Cc2ccc(O)cc2)NC(=O)[C@H](CCC(=O)O)NC(=O)[C@H](CC(=O)O)NC(=O)CNC(=O)[C@H](CSCCC3=O)NC1=O
notes: scaffold TATA
B3: BCY20379 (peptide)
peptide: ACRWXFSEPCGAWCA
modifications: CiRW[4FPhe]FSEPCiiGAWCiii
notes: scaffold TBMT
B4: BCY16165 (peptide)
peptide: ACVGLLELGPCSDLCAK(Pent4ynoyl)-NH2
modifications: linker 2-11-15 via TBMT (inferred)
notes: scaffold TBMT
B5: BCY16142 (peptide)
peptide: ACYLPD[Phe(4-CF3)]LCGDEYCA-NH2
modifications: linker 2-9-14 via TATA; N-terminus assumed
SMILES: CC(C)C[C@@H]1NC(=O)[C@H](Cc2ccc(C(F)(F)F)cc2)NC(=O)[C@H](CC(=O)O)NC(=O)[C@@H]2CCCN2C(=O)[C@H](CC(C)C)NC(=O)[C@H](Cc2ccc(O)cc2)NC(=O)[C@@H](NC(=O)[C@H](C)N)CSCCC(=O)N2CN3CN(C2)C(=O)CCSC[C@@H](C(=O)N[C@@H](C)C(N)=O)NC(=O)[C@H](Cc2ccc(O)cc2)NC(=O)[C@H](CCC(=O)O)NC(=O)[C@H](CC(=O)O)NC(=O)CNC(=O)[C@H](CSCCC3=O)NC1=O
notes: scaffold TATA
B6: BCY16143 (peptide)
peptide: ACYLPD[Phe(4-CN)]LCGDEYCA-NH2
modifications: linker 2-9-14 via TATA; N-terminus assumed
SMILES: CC(C)C[C@@H]1NC(=O)[C@H](Cc2ccc(C#N)cc2)NC(=O)[C@H](CC(=O)O)NC(=O)[C@@H]2CCCN2C(=O)[C@H](CC(C)C)NC(=O)[C@H](Cc2ccc(O)cc2)NC(=O)[C@@H](NC(=O)[C@H](C)N)CSCCC(=O)N2CN3CN(C2)C(=O)CCSC[C@@H](C(=O)N[C@@H](C)C(N)=O)NC(=O)[C@H](Cc2ccc(O)cc2)NC(=O)[C@H](CCC(=O)O)NC(=O)[C@H](CC(=O)O)NC(=O)CNC(=O)[C@H](CSCCC3=O)NC1=O
notes: scaffold TATA
B7: BCY16132 (peptide)
peptide: ACY[Cba]PDYLC[dA]DEYCA-NH2
modifications: linker 2-9-14 via TATA; N-terminus assumed
SMILES: CC(C)C[C@@H]1NC(=O)[C@H](Cc2ccc(O)cc2)NC(=O)[C@H](CC(=O)O)NC(=O)[C@@H]2CCCN2C(=O)[C@H](CC2CCC2)NC(=O)[C@H](Cc2ccc(O)cc2)NC(=O)[C@@H](NC(=O)[C@H](C)N)CSCCC(=O)N2CN3CN(C2)C(=O)CCSC[C@H](NC1=O)C(=O)N[C@H](C)C(=O)N[C@@H](CC(=O)O)C(=O)N[C@@H](CCC(=O)O)C(=O)N[C@@H](Cc1ccc(O)cc1)C(=O)N[C@H](C(=O)N[C@@H](C)C(N)=O)CSCCC3=O
notes: scaffold TATA
B8: BCY16140 (peptide)
peptide: ACYLPD[Phe(4-CONH2)]LCGDEYCA-NH2
modifications: linker 2-9-14 via TATA; N-terminus assumed
SMILES: CC(C)C[C@@H]1NC(=O)[C@H](Cc2ccc(C(N)=O)cc2)NC(=O)[C@H](CC(=O)O)NC(=O)[C@@H]2CCCN2C(=O)[C@H](CC(C)C)NC(=O)[C@H](Cc2ccc(O)cc2)NC(=O)[C@@H](NC(=O)[C@H](C)N)CSCCC(=O)N2CN3CN(C2)C(=O)CCSC[C@@H](C(=O)N[C@@H](C)C(N)=O)NC(=O)[C@H](Cc2ccc(O)cc2)NC(=O)[C@H](CCC(=O)O)NC(=O)[C@H](CC(=O)O)NC(=O)CNC(=O)[C@H](CSCCC3=O)NC1=O
notes: scaffold TATA
B9: BCY16144 (peptide)
peptide: ACYLPD[Phe(4-Cl)]LCGDEYCA-NH2
modifications: linker 2-9-14 via TATA; N-terminus assumed
SMILES: CC(C)C[C@@H]1NC(=O)[C@H](Cc2ccc(Cl)cc2)NC(=O)[C@H](CC(=O)O)NC(=O)[C@@H]2CCCN2C(=O)[C@H](CC(C)C)NC(=O)[C@H](Cc2ccc(O)cc2)NC(=O)[C@@H](NC(=O)[C@H](C)N)CSCCC(=O)N2CN3CN(C2)C(=O)CCSC[C@@H](C(=O)N[C@@H](C)C(N)=O)NC(=O)[C@H](Cc2ccc(O)cc2)NC(=O)[C@H](CCC(=O)O)NC(=O)[C@H](CC(=O)O)NC(=O)CNC(=O)[C@H](CSCCC3=O)NC1=O
notes: scaffold TATA
B10: BCY16501 (peptide)
peptide: ACVGXEELGPCSDLCA
modifications: CiVG[tBuAla]EELGPCiiSDLCiii
notes: scaffold TBMT
B11: BCY16133 (peptide)
peptide: Ac-CY[Cba]PDYLC[dA]DEYC-NH2
modifications: linker 1-8-13 via TATA
notes: scaffold TATA
B12: BCY20394 (peptide)
peptide: ACRWYFSEXCAAWCA
modifications: CiRWYFSE[Aze]Cii[dA]AWCiii
notes: scaffold TBMT
B13: BCY14455 (peptide)
peptide: ACYLPDWLCGDEYCA-NH2
modifications: linker 2-9-14 via TATA; also: scaffold TATA, TATB or TBMT
notes: scaffold TATA
B14: BCY15650 (peptide)
peptide: ACYLPDYLC[dA]DEYCA-NH2
modifications: linker 2-9-14 via TATA; N-terminus assumed
SMILES: CC(C)C[C@@H]1NC(=O)[C@H](Cc2ccc(O)cc2)NC(=O)[C@H](CC(=O)O)NC(=O)[C@@H]2CCCN2C(=O)[C@H](CC(C)C)NC(=O)[C@H](Cc2ccc(O)cc2)NC(=O)[C@@H](NC(=O)[C@H](C)N)CSCCC(=O)N2CN3CN(C2)C(=O)CCSC[C@H](NC1=O)C(=O)N[C@H](C)C(=O)N[C@@H](CC(=O)O)C(=O)N[C@@H](CCC(=O)O)C(=O)N[C@@H](Cc1ccc(O)cc1)C(=O)N[C@H](C(=O)N[C@@H](C)C(N)=O)CSCCC3=O
notes: scaffold TATA
B15: BCY15656 (peptide)
peptide: ACYLPAYLCGDEYCA-NH2
modifications: linker 2-9-14 via TATA; also: cyclised with TATA, TATB or TBMT
notes: scaffold TATA
B16: BCY16509 (peptide)
peptide: ACVGL[Cba]ELGPCSDLCA-NH2
modifications: linker 2-11-15 via TBMT″
notes: scaffold TBMT
B17: BCY16508 (peptide)
peptide: ACVGLXELGPCSDLCA
modifications: CiVGL[tBuAla]ELGPCiiSDLCiii
notes: scaffold TBMT
B18: BCY19050 (peptide)
peptide: ACRXSVEDPCGAWCA
modifications: CiR[6ClTrp]SVEDPCiiGAWCiii
notes: scaffold TBMT

What was measured:
[1] = molecular target: T1, human CD16a F176 variant, biotinylated (human, UniProt P08637 17-208, C-terminally biotinylated); experiment: SPR
T1 construct: supplier is told for the AlphaScreen assay only; also called F Variant; FcγRIIIA F variant
Method: (§1) The SPR analysis was run at 25° C. at a flow rate of 50 μl/min with 60 seconds association and dissociation between 60 and 200 seconds. Data were corrected for DMSO excluded volume effects. All data were double-referenced for blank injections and reference surface using standard processing procedures and data processing and kinetic fitting were performed using Scrubber software, version 2.0c (BioLogic Software). Data were fitted using simple 1:1 binding model allowing for mass transport effects where appropriate.
(§2) For analysis of peptide binding, a Biacore 8k+ instrument was used with a CM5 chip (Cytiva). All experiments were carried out at 25° C. Streptavidin was immobilized on all flow cells by standard amine coupling chemistry. The running buffer was HBS-N(Cytiva, 10 mM HEPES, 0.15 M NaCl, pH 7.4) and the flow rate was 10 μl/min. The carboxymethyl dextran surface was activated with a 1:1 ratio of 0.4 M 1-ethyl-3-(3-dimethylaminopropyl) carbodiimide hydrochloride (EDC)/0.1 M N-hydroxy succinimide (NHS) (Cytiva) for 420s. Streptavidin (ProSpec, cat no. PRO-791) was diluted to 0.2 mg/ml in 10 mM sodium acetate pH 4.5 and was injected onto the chip surface for 600 s. Residual activated groups were blocked with a 420 s injection of 1 M ethanolamine (pH 8.5). The final surface density was 2000-3000 RU. Biotinylated CD16a was diluted to 5 μg/ml in HBS-N and was captured on flow cell 2 only of the streptavidin chip at a flow rate of 10 μl/min to 1500-2500 RU. The buffer was then changed to PBS-P+(Cytiva) supplemented with 0.5-2% DMSO. […] The flow rate was 30 μl/min with 100 s association and 400 s dissociation. Data were corrected for DMSO volume exclusion effects. All data were double-referenced against blank injections and reference surface response using standard processing procedures. Data processing and kinetic fitting was performed using Biacore Insight Evaluation Software with Extended Screening and Characterization Extension (Cytiva). Data were fitted using steady state affinity 1:1 binding model to determine KD. Data were fitted using kinetic 1:1 binding model to determine kinetic constants where appropriate.

[2] = molecular target: T2, Human NKp46 Fc tag (Acro Biosystems, NC1-H5257) (human, UniProt O76036 22-255); experiment: SPR Method 1 and/or 2
T2 construct: bought; also called Fc-tagged human NKp46
In short: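 Fc-tagged human NKp46 captured on anti-human IgG surface (500–1000 RU); compounds run in PBS-P+ with 2% DMSO at 25 °C, 50 μL/min, 60 s association, 400 s dissociation. Double-referenced, DMSO-corrected; KD from steady-state 1:1 fit, kinetic constants from kinetic 1:1 fit where appropriate.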

[3] = molecular target: T3, Human NKp46 His tag (Acro Biosystems, NC1-H52H4) (human, UniProt O76036 22-255); experiment: FP competition vs BCY15035
T3 construct: bought; also called human NKp46-his tagged protein
Method: The untagged competitor peptides were diluted in assay buffer 25 mM HEPES, 100 mM NaCl, 0.01% P20, pH 7.4. to a top concentration of 5000 nM and diluted 2-fold in 11 steps. The human NKp46-his tagged protein (AcroBiosystems) was diluted to 40 nM final concentration in the assay. […] The total volume of 25 μL was prepared in black walled and flat-bottomed low binding low volume 384 well plates. Measurements were performed using Envision (PerkinElmer) equipped with the excitation filter FITC FP 480, emission filter FITC FP P-pol 535 and 2nd emission filter FITC FP S-pol 535 and set to 30 flashes. The gain was set in a well containing tracer alone without target protein.

[4] = molecular target: T4, human CD16a V176 variant, biotinylated (human, UniProt P08637 17-208, N-terminally biotinylated in-house); experiment: SPR
T4 construct: supplier is told for the AlphaScreen assay only; also called V Variant; FcγRIIIA V variant
Method: as §1, §2

T1 sequence (P08637 17-208 limits assumed, change not shown): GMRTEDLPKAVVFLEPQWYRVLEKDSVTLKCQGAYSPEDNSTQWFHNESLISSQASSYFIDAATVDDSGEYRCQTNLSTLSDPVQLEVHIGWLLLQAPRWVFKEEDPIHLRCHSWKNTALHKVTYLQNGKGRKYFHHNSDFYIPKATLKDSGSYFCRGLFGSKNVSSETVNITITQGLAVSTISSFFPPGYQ
T2 sequence (O76036 22-255 limits assumed): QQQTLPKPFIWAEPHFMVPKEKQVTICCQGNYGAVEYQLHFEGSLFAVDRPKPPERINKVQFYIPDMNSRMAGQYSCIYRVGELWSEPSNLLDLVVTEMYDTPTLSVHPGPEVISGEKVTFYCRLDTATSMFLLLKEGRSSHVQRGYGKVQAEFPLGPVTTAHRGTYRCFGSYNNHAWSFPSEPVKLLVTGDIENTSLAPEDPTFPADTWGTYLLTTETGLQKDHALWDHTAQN
T3 sequence (O76036 22-255 limits assumed): as above
T4 sequence (P08637 other isoform, or with tags, fused parts or gaps mutant limits assumed): as the sequence (P08637 17-208 limits assumed, change not shown) above, with F160V counted along it

Row | Binder | Kd [2] [µM] | Ki [3] [µM] | also measured
1 | B1 | – | – | Kd [1]: 1.6 µM
2 | B2 | 0.011 | 0.017 | –
3 | B3 | – | – | Kd [4]: 1.43 µM
4 | B4 | – | – | Kd [4]: 3.23 µM
5 | B5 | – | 0.317 | –
6 | B6 | – | 0.464 | –
7 | B7 | 0.0039 | 0.008 | –
8 | B8 | – | 0.122 | –
9 | B9 | – | 0.718 | –
10 | B10 | – | – | Kd [4]: 3.23 µM
11 | B11 | 0.0049 | 0.01 | –
12 | B12 | – | – | Kd [4]: 1 µM
13 | B13 | 0.23 | 0.282 | –
14 | B14 | 0.01 | 0.016 | –
15 | B15 | 0.034 | 0.039 | –
16 | B16 | – | – | Kd [1]: 2.82 µM
17 | B17 | – | – | Kd [1]: 2.98 µM
18 | B18 | – | – | Kd [1]: 2.15 µM
